One assay deals with T1, human serum albumin (human, UniProt P02768 25-609).
T1 construct: also called HSA; HumanSA
Nature of the assay: SPR (Biacore 3000), construct captured by anti human CH1 antibody on CM5 chip, HSA as analyte.

Assay [1] concerns the target T2, hIL13 (human, UniProt P35225 35-146, limits assumed).
T2 construct: also called human IL-13
Nature of the assay: SPR Biacore 3000, construct captured, 20 nM hIL13 injected.

Assay [2] has as its target T2, hIL13. Nature of the assay: SPR (Biacore 3000), construct captured by anti human CH1 antibody on CM5 chip, hIL13 as analyte (single concentration 20 nM).

B1: 645Fv-652Fab (L-3xG4S, H-3xG4S) (bispecific antibody, V domains shown)
VH: EVQLLESGGGLVQPGGSLRLSCAVSGIDLSNYAINWVRQAPGKGLEWIGIIWASGTTFYATWAKGRFTISRDSTTVYLQMNSLRAEDTAVYYCARTVPGYSTAPYFDLWGQGTLVTVSS
VL: DIVMTQSPSSVSASVGDRVTITCQSSPSVWSNFLSWYQQKPGKAPKLLIYEASKLTSGVPSRFKGSGSGTDFTLTISSLQPEDFATYYCGGGYSSISDTTFGGGTKVEIK
In the assay with human serum albumin, B1 came in with a Kd of 1.22 nM, a koff of 0.000311 s⁻¹ and a kon of 255000 M⁻¹ s⁻¹. In the assay with hIL13 [1], the Kd was roughly 0.1 nM. In the assay with hIL13 [2], this molecule yielded a Kd of 0.126 nM, an off-rate constant (koff) of 0.000177 s⁻¹ and a kon of 1.4e+06 M⁻¹ s⁻¹.

The values above are taken from patent US20120316324A1 (UCB, published 2012).
